According to publication PMC4835703, “Cellular uptake of exogenous calcineurin B is dependent on TLR4/MD2/CD14 complexes, and CnB is an endogenous ligand of TLR4” (Scientific Reports, 2016):

Target: T1, recombinant calcineurin B (UniProt P63098 1-170)
T1 construct: calcineurin B (CnB), regulatory subunit of calcineurin; recombinant protein (rhCnB); also called CnB; rhCnB; source: provided by Haikou Qili Pharmaceutical Co., Ltd
Assay: MST; purified TLR4 ectodomain or soluble CD14 labelled with DyLight 488, 20 nM in MST buffer; CnB titrated in 16 1:1 dilutions; 10 min incubation; Monolith NT.115, 25 °C, 50% LED power, 20% MST power
Conditions: both partners purified

B1: soluble CD14 (receptor)
chain: TTPEPCELDDEDFRCVCNFSEPQPDWSEAFQCVSAVEVEIHAGGLNLEPFLKRVDADADPRQYADTVKALRVRRLTVGAAQVPAQLLVGALRVLAYSRLKELTLEDLKITGTMPPLPLEATGLALSSLRLRNVSWATGRSWLAELQQWLKPGLKVLSIAQAHSPAFSCEQVRAFPALTSLDLSDNPGLGERGLMAALCPHKFPAIQNLALRNTGMETPTGVCAALAAAGVQPHSLDLSHNSLRATVNPSAPRCMWSSALNSLNLSFAGLEQVPKGLPAKLRVLDLSCNRLNRAPQPDELPEVDNLTLDGNPFLVPGTALPHEGSMN
modifications: labelled with DyLight 488 in the MST experiment and where it was the soluble partner in the ELISA; unlabelled where coated on the plate and in the co-IP
notes: CD14, soluble recombinant form; also called sCD14; purified soluble CD14; source: bought: Sino Biological, Inc
Kd: 1010 nM
